# Test results reported in US20230071609A1 (Genentech, published 2023).
# Changes are numbered by the printed parent chain.
# T1: untagged APOL1-G0, KIK variant, transiently expressed (COS cells) (human, UniProt O14791 29-398)
# T1 construct: Origene SC109941 clone with E150K, M228I, R255K
# T1 chain: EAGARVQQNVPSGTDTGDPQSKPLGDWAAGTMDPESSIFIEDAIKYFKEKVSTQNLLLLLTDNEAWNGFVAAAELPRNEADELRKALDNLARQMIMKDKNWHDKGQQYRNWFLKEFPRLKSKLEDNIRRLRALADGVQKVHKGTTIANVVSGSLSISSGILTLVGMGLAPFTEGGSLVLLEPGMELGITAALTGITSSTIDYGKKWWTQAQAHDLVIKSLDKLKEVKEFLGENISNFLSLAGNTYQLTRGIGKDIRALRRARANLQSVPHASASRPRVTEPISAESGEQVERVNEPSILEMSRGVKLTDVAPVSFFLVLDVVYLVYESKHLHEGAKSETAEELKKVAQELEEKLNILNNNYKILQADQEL
# T2: endogenous human APOL1 (wild-type immortalized podocytes; also JHH-1 cells, kidney and liver tissue) (human, UniProt O14791 28-398)
# T2 construct: whole, on cells; Cell or tissue and permeabilization are told under assay; also called podocyte APOL1; endogenous APOL1
# T2 sequence (looked up): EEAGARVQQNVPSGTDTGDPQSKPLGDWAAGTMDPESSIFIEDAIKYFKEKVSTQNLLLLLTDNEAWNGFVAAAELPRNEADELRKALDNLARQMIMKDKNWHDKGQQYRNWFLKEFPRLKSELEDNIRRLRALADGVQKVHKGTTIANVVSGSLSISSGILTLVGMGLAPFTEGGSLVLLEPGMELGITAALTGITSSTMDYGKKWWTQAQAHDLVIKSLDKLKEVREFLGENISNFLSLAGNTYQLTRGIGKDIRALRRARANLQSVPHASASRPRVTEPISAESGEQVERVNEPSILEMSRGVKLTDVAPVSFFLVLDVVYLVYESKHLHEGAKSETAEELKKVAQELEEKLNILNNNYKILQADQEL
# T3: native full length untagged APOL1-G0 (iAPOL1-CHO, construct a) (human, UniProt O14791 28-398)
# T3 construct: Also used as CHO lysate in western blots; also called iAPOL1-G0; WT iAPOL1-G0
# T3 sequence: T2 sequence (looked up)
# B1: antibody 4.17A5 (antibody, V domains shown)
# VH: QVQLQQSGPELLKPGASVKISCKGSGYAFSNSWINWVKLRPGQGLEWIGRIYPGDGDTKYNGKFKGKATLTADKSSSTAHMQLRSLTSVDSAVYFCARFPFGKYEGPGAMDYWGQGTSVTVSS
# VL: DIQMTQTTSSLSASLGDRVTISCRASQDISSYLNWYQQKPDGTIKLLIYYTSRLHSGVPSRFSGSGSGTDFSLTISNLEQEDIATYFCQQGNTLPYTFGGGTKLEIKR
# notes: Mouse mAb (Method #4), cloned as murine IgG2a LALAPG; also called mAb 4.17A5
# B2: antibody 4.12E5 (antibody, V domains shown)
# VH: EVQLQQSGPELVKTGASVKISCKASGYSFTGYFMHWVKQSHGKSLEWIGYISCYNGASVYNQRFKGKATFTIDTSSSTAYMQFNSLTSEDSAVYYCARDVLRYPRYAVDYWGQGTSVTVSS
# VL: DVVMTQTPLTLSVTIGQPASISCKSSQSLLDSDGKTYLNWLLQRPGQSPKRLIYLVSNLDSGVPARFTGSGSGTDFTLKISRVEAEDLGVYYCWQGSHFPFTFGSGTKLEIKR
# notes: Mouse mAb, cloned as murine IgG2a LALAPG
# B3: antibody 3.6D12 (antibody, V domains shown)
# VH: EVMLVESGGGLVRPGGSLKLSCTASGFTFSRCAMSWVRQTPEKRLEWVSAISRDSTYTYYSDSVKGRFTVSRDNAKNTLYLQMSSLRSEDTAMYYCARQIDDYYVDALDYWGQGTSVTVSS
# VL: DVQITQSPSYLAASPGETITINCRASKIISKYLAWYQEKPGKTIKLLIYSGFTLQSGIPSRFSGSGSGTDFTLTISSLEPEDFAMYYCQQHNEYPLTFGAGTKLEIKR
# notes: Mouse mAb (Method #3), cloned as murine IgG2a LALAPG; Early screens used hybridoma-purified antibody; also called mAb 3.6D12
# B4: rabbit monoclonal antibody 5.17D12 (antibody, V domains shown)
# VH: QSLEESGGDLVKPGASLTLTCTASGFSFSSNYYMCWVRQAPGKGLEWIACVYVGSGGSTYYASWAKGRFTFSKTSSTTWTLQMTSLTAADTATYFCARDLSYAGDLWGPGTLVTVSS
# VL: DPVMTQTPASVSEPVGGTVTINCQASESISSYLAWYQQKPGQPPKLLIYGASNLASGVPSRFKGSGSGTEYTLTISDLECDDAATYYCQSAYYSNSGGHAFGGGTEVVVKG
# notes: Rabbit mAb (Method #5), recombinant; also called rabmab 5.17D12
# B5: antibody 3.7D6 (antibody, V domains shown)
# VH: QIQLVQSGPDLKKPGETVKISCRTSGYAFTNYGVNWVKQAPGKGLKWMGWINTNTGQTTYAEEFRGRFAISLETSASTAFLTISNLKNEDSATYFCARLIYDGDYISSDFWGQGTTLTVSS
# VL: DIQMTQSPDSLSASVGETVTITCGASENIYGALNWYQRKQGKSPQLLIYGATNLADGMSSRFSGSRSGRQYSLKISSLHPDDVATYYCQNALSMPYTFGGGTKLEIKR
# notes: Mouse mAb, cloned as murine IgG2a LALAPG; those versions are not written separately; also called PFD antibody 3.7D6
# B6: antibody 3.1C1 (antibody, V domains shown)
# VH: QVQLQQSGPELVKPGASVRISCKASGYTFTNYFIHWVKQRPGQGLEWIGWINPGNLNTKYTEEFKGKATLTADKSSSTAYIQLNSLTSEDSAVYFCVNGNPFVYWGQGTLVTVSA
# VL: DIVMTQSPSSLTVIAGEKVTLNCKSSQSLLNSGNQKKYLTWLQQKPGQPPKLLIYWTSTRDSGVPDRFTGSGSGTDFTLTISSVQAEDLAVYYCQNDYSYPLTFGAGTKLEIKR
# notes: Mouse mAb, cloned as murine IgG2a LALAPG; not written separately; also called SRA-ID mAb 3.1C1
# B7: antibody 3.6E10 (antibody, V domains shown)
# VH: QVQLQQSGAELAKPGASVKMSCKASGYIFTSYYLHWVKQRPGQGLEWIGYINPNTGYTEYTQNFKDRATLTADKSSSTAYMQLTSLTSEDSAVYFCVNGNPFVYWGQGTLVTVSA
# VL: B6 VL with I14T, A15T, L21M, N22T, K24R, K37N, L42F, D61Y
# notes: as for B2
# Molecular target: T1, untagged APOL1-G0, KIK variant, …
# Experiment: immunofluorescence on transfected COS cells, 1 µg/ml; grade
row,binding result,Binder
1,binds,B1
2,binds,B2
3,binds,B3
4,binds,B4
5,binds,B5
6,binds,B6
7,binds,B7

# Molecular target: T2, endogenous human APOL1 (wild-type …)
# Experiment: flow cytometry, live WT and iAPOL1-G0 podocytes
# Procedure: (§1) Cells were harvested with 5 mM EDTA in PBS, washed once with growth media and twice with PBS. Approximately 0.5×10⁶/m1 of cells resuspended in PBS were incubated with anti-APOL1 antibodies for 1 h on ice. Following two PBS washes, 2 μg/ml of Alexa488 anti-mouse or anti-rabbit (Invitrogen A11029 and A21206, respectively) was used for 1 h on ice for detection. Cells were washed twice in PBS and resuspended in PBS with 1 μg/ml propidium iodide. Signals were read in a FACSCalibur3 (Becton Dickinson), with the exception of FIG. 8A and FIG. 14, which used a FACSCelesta, and data was analyzed using FlowJo v8.4.5. Mean fluorescence intensities were plotted in PRISM v7 after subtraction of secondary antibody alone background. For low pH experiments, cells were incubated with the antibodies in the presence of PBS pH 7.0 or PBS pH 5.5 for an hour on ice and detected with secondary antibodies at neutral pH.
# More importantly, there were also differential APOL1 accessibilities between serum APOL1 and kidney disease-relevant podocytes (FIG. 18B). Some antibodies bound surface APOL1 in WT and iAPOL1 podocytes (FIG. 6A, 6B), but not circulating APOL1 (as judged by lack of trypanolytic blockade, FIG. 6C) and vice versa. […] Conversely, 3.3B6 and 4.17A5 were among the top trypanolytic blockers, but recognized the podocyte surface relatively weakly. […]
row,Binder,binding result
1,B1,binds

# Molecular target: T3, native full length untagged APOL1-G0 …
# Experiment: immunofluorescence, PFA-fixed permeabilized iAPOL1-CHO cells
# Source text: APOL2 is shown stained with 3.6D12 (a mAb to the N-terminal pore-forming domain (PFD)), although similar results were obtained with the other 43 APOL2-cross reactors (all to the PFD, data not shown). […] APOL1 is shown stained with PFD mAb 3.7D6, membrane-addressing domain (MAD) mAb 3.3A8, or SRA-interacting domain (SRA-ID) mAb 3.1C1, each detected with Alexa488 anti-mouse (see Example 1 below for epitope mapping), although similar results were obtained with all the other APOL1-specific antibodies to all three domains (data not shown). The reticular ER pattern persists in digitonin (plasma membrane only)-permeabilized cells for APOL2, but not APOL1, indicating APOL2 is on the cytoplasmic face of the ER, while APOL1 is inside. The nuclear membrane signal for APOL1 with digitonin is also seen without detergent in some cells since PFA semi-permeabilizes the nuclear membrane (data not shown). With digitonin, some of the more sensitive antibodies, including the PFD (3.7D6) and SRA-ID (3.1C1) antibodies shown here (but not MAD antibody 3.3A8), additionally detected APOL1 on the plasma membrane (arrowhead), which is topologically equivalent to the ER lumen.
# Cells were plated on LabTekII (Nalge Nunc 154534) slides and fixed at 70-100% confluency. For mAb screening, cells were fixed/permeabilized for 5 min in −20° C. methanol (EMD MX0485-6). […]
row,binding result,Binder
1,binds,B6

# Molecular target: T2, endogenous human APOL1 (wild-type …)
# Experiment: summary of the Examples: podocyte flow cytometry
# Procedure: as §1
row,Binder,binding result
1,B2,binds
2,B4,binds
3,B6,binds
4,B7,binds
